Test results as given in the nanobody polyreactivity screen of Harvey et al. (2022).

Experiment: yeast display, Sf9 membrane polyspecificity reagent, FACS + sequencing; frameworks hold sequencing errors
In short: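 Using colony PCR, genes from sorted yeast display clones were amplified, then sequenced on MiSeq at 2 × 250 and filtered by CDR length. The clones had been stained with 10% biotinylated, detergent-solubilized Sf9 membrane reagent for 1 hour at 4 °C and sorted by FACS into low and high (top ~1%) gates on anti-HA and streptavidin fluorescence. Polyreactivity labels come from the gate of origin.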

Sequence	polyreactivity (PSR sort gate)
QVQLEESGGGLVQAGGSLRLSCAASGSIFSPNAMGWYRQAPGKERELVAAISSNGVSTYYADSVKGRFTISRDNAKNTVYLQMNSLKPEDTAVYYCAAVSIGPGEYDYWGQGTQVTVSS	low polyreactivity
QVQLEESGGGLVQAGGSLRLSCAASGSIFTNAMGWYRQAPGKERELVAAISSSGGSTYYADSVKGRFTISRDNAKNTVYLQMNSLKPEDTAVYYCAADHYGGRDYWGQGTQVTVSS	low polyreactivity
QVQLEESGGGLVQAGGSLRLSCAASGSIFVYNAMGWYRQAPGKERELVAAISQRGGSTYYADSVKGRFTISRDNDKNTVYLQMNSLKPEDTAVYYCAAGPGDSGDDYWGQGTQVTVAS	low polyreactivity
QVQLEESGGGLVQAGGSLRLSCAASGSIFVYYAMGWYRQAPGKERELVAAISSSGTSTYYADSVKGRFTISRDNAKNTVYLQMNSLKPEDTAVYYCATTRRYAYRGGHNYWGQGTQVTVSS	high polyreactivity
QVQLEESGGGLVQAGGSLRLSCAASGSIFYTYAMGWYRQAPGTERELVAAISRSGGSTYYADSVKGRFTISRDNAKNTVYLQMNSLKPEDTSVYYCAARPPYRVGIVPLGRREYYWGQGTQVTVSS	high polyreactivity
QVQLEESGGGLVQAGGSLRLSCAASGSILPKYDMGWSRQAPGKERELVAAITRTGGRTYYADSVKGRFTISRDYAKNTVYLQMNSLKPEDTAVYFCAVRGFFWSTRSYRIRSEYDYWGQGTQVTVSS	low polyreactivity
QVQLEESGGGLVQAGGSLRLSCAASGSTFDVYAMGWYRQAPGKERELVAAISRSGGSTYYADSVKGRFTISRDTAKTTVYLQMNSLQPEDTAVYYCNARLARWGSYEYNYWGQGTQVTVSS	low polyreactivity
QVQLEESGGGLVQAGGSLRLSCAASGSTFESYAMGWYRQAPGKERELVAAISWRVGSTYYADSVKGRFTISRDNAKNTFYLQMNILKPEDTAVYYCASKGWYSHYGGYDYWGQGTQVTVSS	low polyreactivity
QVQLEESGGGLVQAGGSLRLSCAASGSTFHINAMGWYRQAPGKEREFVADINWSGGSTYYADSVKVSFTISRDNAKNTVYLQMNSLKPADTAVYYFAADVGVFTYSPYDAGEHDYWGQGTLVTVSS	low polyreactivity
QVQLEESGGGLVQAGGSLRLSCAASGSTFIVNAMGWYRQAPGKERELVATISGGDSTDYADSVKGRFTISRDNAKNTVYLQMKSLKPEDTAVYYCNAEVHQYYFTPYDYWGQGTQVTFSS	low polyreactivity
QVQLEESGGGLVQAGGSLRLSCAASGSTFTFYAMGRYRQAPGKERELVAAINGRGGSTYYADSVKGRFTISRDNAKNTVYLQMNSLKPEDTAVYYCATRLYYSVRYNMGYWGQGTQVTVSS	high polyreactivity
QVQLEESGGGLVQAGGSLRLSCAASGSTFYDYAMGWYRQAPGKERELVAAINGNGDSTYYADSVKGRFTISRDNAKNTVYLQMNSLKPEDTAVYYCAAYLGWGYDYWGQGTLVTVSS	low polyreactivity
QVQLEESGGGLVQAGGSLRLSCAASGSTFYGYGMGWYRQAPGKERELVAAITGSGDTTYYADSVKGRFTISRDNAKNTVYLQMNSLKTEDTAVYYCNARWHAEYDYWGQGTQVTVSS	low polyreactivity
QVQLEESGGGLVQAGGSLRLSCAASGSTFYKYAMGWSRQAPGKERELVASITWSGTSTYYADSVKGRFTISRDNAKNTVYLQMNSLKPEDTAVYYCNAGLEYYYWGYTWEFDYWGQGTQVTVSS	low polyreactivity
QVQLEESGGGLVQAGGSLRLSCAASGSTFYVYAMGWYIQAPGKERELVAAITDSGGSTYADSVKGRFTISRDNAKNTVYLQMNSLKPEDTAVYADSTYTWYYYYWGQGTQVTVSS	low polyreactivity
QVQLEESGGGLVQAGGSLRLSCAASGSTFYYNAIGWYRQAPGKERELVAGITSGTGTKYADSVKGRFTISRDNAKNRVYLQMNSLKPEDTAVYYCAKDGTRYGSAPFGYWGQGTQVTVSS	low polyreactivity
QVQLEESGGGLVQAGGSLRLSCAASGSTFYYYALGWYRQAPGKERELVATINKIVGITYYADSVKGRFTISRDNAKNTVYLQRNSLKPEDTAVYYCAVQDTSYDVQYSYGYWGQGTQVNVSS	low polyreactivity
QVQLEESGGGLVQAGGSLRLSCAASGTTFGINCYGMYRQAPGKERELVAGISVSGGSTYYADSVNGRFTISRDNAYNTVYLQMNSLKPEDTAVYYCAAKWFNRDFDYWGQGTQVTVSS	low polyreactivity
QVQLEESGGGLVQAGGSLRLSCAASGYIFSQYAMGWYRPAPGKERELVASISGSGSSTYYADSVKGRFTISRDNAKNTVYLQMNSLKPADTAVFYCAAEWTWGWYITFDYWGQGTQVTVSS	high polyreactivity
QVQLEESGGGLVQAGGSLRLSCAASGYNFVYYAMGWYRQAPGKERELDAAITGRGGSTYYADSVKGRFTISRDNAKNTVYLQMNSLKPEDTAVYYCAKKRIGPVKQFGRDYNYWGQGTQVTVSS	high polyreactivity
QVQLEESGGGLVQAGGSLRLSCAASGYTVVLYAMGCDIQAPGKERELVAVISWSGGSTYYADSVKGRFTISRDNAKNTVYLQMNSLKPEDTAVYYCAVSRYYNDYWGQGTQVTVSS	low polyreactivity

Sequence	polyreactivity (PSR sort gate)
QVQLEESGGGLVQAGGSLRLSCAASVSIFFVNAMGWYRQAPGKERELVASISRDGSTNYADSVKGRFTISRDNAKNTVYLQMNSLKPEVTAVYYCNGLSADWYPEEDYWGQGTQVTVSS	low polyreactivity
QVQLEESGGGLVQAGGSLRLSCAGSGRNFGVNTMRWYRQATGKERDLVAAISFSGVSTYYADSVKGRFTISRDNAKNTVYLQMNSLKPEDTPVYYCAAVPYRQYPCGGYWGQGTQVTVSS	low polyreactivity
QVQLEESGGGLVQAGGSLRLSCDASGRTFDTNAMGWYIQAPGKERELVAVITARGGNTSYADSVKGRFTISRDNSKNTVYLQMNSLKPEDTAVYYCAAPADDTVHYQNYYWGQGTQVTVSS	low polyreactivity
QVQLEESGGGLVQAGGSLRLSCPASGYTFESNAMGWSRQAPRKERELVAAINGGGGTYYADSVKGRFTISRDNGKNTVYLQMNSLKPEDTAVNVDIGFAYVPNYDYWGQGTQVTVSS	low polyreactivity
QVQLEESGGGLVQAGGSLRLSSAASGFIYVYAMGWYRQAPGKVRELVAAITATGDSTYYADSVKGRFTISRDNAKNTVYLQMNSLKPEDTAVYYCARNVNAQKVLGGFDSWGQGTQVNVSS	low polyreactivity
QVQLEESGGGLVQAGGSLRLSSAASGRTFYDNTMGWYRQSPVKERELVAAISRGGSTYADSVKGRFTISRDNAKNSVYLQMNSLKPEDTAVYYCAAVPRYQYGYWGQGTQVTVSS	low polyreactivity
QVQLEESGGGLVQAGGSLRLSSPASGFIFRYYAMGWYRQAPGKERELVAAISGRGGSTYYADSVKGRFTISRDNAKNTVYLQMNSLKPEDTAVYYCAVDVPSQGGDYWGQGTQVTVSS	high polyreactivity
QVQLEESGGGLVQAGGSLRLTCAASGRIFHSNDMGWNRQAPGKERELVAAITKVGGTNYADSVKGRFTISRDNAKNTVSLQMNSLKPEDTAVYYCAAAFYLYSPISGVYLSYSEYDYWGQGSQVTVSS	high polyreactivity
QVQLEESGGGLVQAGGSLRLTCAASGRTIVYNAMGWYRQAPGKERELVAAIDGGTGSTYYADSVKGRFTISRDNAKNTVYLEMNCLKPEDTAVYYCAVETYGGGYPVTYDYWGQGTQVTVSS	low polyreactivity
QVQLEESGGGLVQAGGSLRLTCAASGSTSQIYAMGWYRQAPGKERELVAAINGVGSTNYADSVKGRFTISRDNAKNTVYLQMNSLKPEDTAVYYCAADGTALHEYLGDYDYWGQGTQVTVSS	low polyreactivity
QVQLEESGGGLVQAGGSLRLTCAGSGSIFDGNSMGWDRQAPGKEMELVASISWSGGTTYYADSVKGRFTISRDNATNTVYLQMNSLIPEDTAVYYCNKAGGYRRYSFWSGDYWAGLDFLGQGTQVTVSS	low polyreactivity
QVQLEESGGGLVQAGGSLRLTCAGSGSISYRYDMGWYRQATGKEMELVAVITGSGGSTYYADSVKGRFTISRDNAKNTVYLQMNSLKPEDTAVYYCANEPGENWTVSWRDFDFWGQGTQVTVSS	low polyreactivity
QVQLEESGGGLVQAGGSLRVSCAASGRTSEIYTLGGYRTAPGKERELVASINTNYADSGKGRFTISRDIAKNTVYLQLISLKPDDTAVYYCNADDTIEFNYWGQGTQVTVSW	low polyreactivity
QVQLEESGGGLVQAGGSLRVSCAASGSILIPNAMGWYRQAPGKERELVASISKSGGSTYYADSVKGRFTISRDTAKNTVYLQMNSLKPEDTAVYYCAAAFVSVRKRYGYWGQGTQVTVSS	high polyreactivity
QVQLEESGGGLVQAGGSLSLSCAASGSNFVYNAMGWYRQAPGKERELVAVINSGGSTNYADSVKGRFTISRDNAKNTVYIQKNSRKPEDTAVYYCAADRLAVHYYSWYNYWGQGTQVTVSS	low polyreactivity
QVQLEESGGGLVQAGRSLRLSCAASGRTFIRNAMGRYRHAPGQQRELVAAISSRGGRTYYADSVKGRFTISRDNAKTTVSLEMNSLKPEDTAVYYCAADFTYKLDGYDYWGQGSQVTVSS	high polyreactivity
QVQLEESGGGLVQARVSLRLSSAASGFTLWNYAMGLYRQAPGKERELVAGINSGGRTYYADSVKGRFTISRDNAKNTVYLQMKSLKPEDTAVFYCNARGWSSFSHNSYFMDYWGQGTQVTVSS	high polyreactivity
QVQLEESGGGLVQEGGSLRLSSAASGFTFGKYAMGSYRQAPGKEMEFVASISSSGARTYYADSVKGRFTISRDNAKNTVYLQKNSLKPEDTAVYYCAAAYGRYYYTYDYWGQGTQVTVSS	high polyreactivity
QVQLEESGGGSVQAGGSLRISCAASGFTFFSYTMGWYRQAPGKERELVAAISKRGSRTYYADSVKGRFTISRDHAKNTVDLQMNSLKPEDTAVYYCAADAGPEVVHRREDYWGQVTQVTVSS	high polyreactivity
QVQLEESGGGVVQAGGSLRLSCAASGIIFYRYAMGCYRQAPGKERELVAAISKNGGRTYYADSVKGRFTISRDNAKNTVYLQMNSLKPEDTAVYYCNARYGYYLYWGQGTQVTVSS	high polyreactivity
